From the DeepSol protein solubility set

Test: soluble on expression in E. coli; label from the status in PepcDB or PDB records

Sequence | soluble on expression in E. coli
MSLRAVVTMGHGDLDQLVLHPDWPRPDPEPGEVLIRVGACGLNNTDVNTRSGWYSKTVTDATTGGAFDEVGEDDPTWGGAPITFPRIQGADVCGTIVAVGAGVDAARIGERVITDGWLRDADAPEDMNKTGYFGSERNGGFAEYTTIPSSNALDVNSTLSDAELATFSCSYSTAEGMLTRARVTADDTVLIPGASGGVGGALVQLAKRRGARVIAIASEGKHSDVAALGPDMILPRAPAHLRSALGDERITVVADVVGGPYWPSLIDILERGGRYTCSGAIAGPMVSLDLRTFYLRDLTFTGSTVIDLEVMPNIVRYIEEGAIKPSLAATYPLEDLRAAQSAFIAKEHTGNIVVTEGHHHHHH | not soluble
MSLRDESRLDKYVIKEILRINRHLPRRRKTLEELLREERPHVVNRDGTKHYFDRDELERLADILPRYLHGRLKLPILIELGYSGAAVIRGKAEVRVVCEVLGEEWRFSQDRVELNMLDVRKLRREFPTATQYMFSTEYIMGRPKVERREGHHHHHH | soluble
MSLRELQNALYFSEVVFGPNLEKIVGEKRLNFWLKLIGEDPENLKEFLSRKGNSFEEQTLPEKEAIVPNRLGEEALEKVREELEFLNTYSTKHVRRVKELGVQIPFEGILLPFISMYIEKFQQQQLRKKIGPIHEEIWTQIVQDITSKLNAILHRTLILELNVARVTSQLKGDTPEERFAYYSKTYLGKREVTHRLYSEYPVVLRLLFTTISHHISFITEILERVANDREAIETEFSPCSPIGTLASLHLNSGDAHHKQRTVTILEFSSSLKLVYKPRSLKVDGVFNGLLAFLNDRTGEVIKDQYCPKVLQRDGYGYVEFVTHQSCQSLEEVSDFYERLGSLMSLSYVLNSSDFHFENIIAHGPYPVLIDLETIIHNTADSSEETSTAMDRAFRMLNDSVLSTGMLPSSIYYRDQPNMKGLNVGGVSKSEGQKTPFKVNQIANRNTDEMRIEKDHVTLSSQKNLPIFQSAAMESVHFLDQIQKGFTSMYQWIEKNKQEFKEQVRKFEGVPVRAVLRSTTRYTELLKSSYHPDLLRSALDREVLLNRLTVDSVMTPYLKEIIPLEVEDLLNGDVPYFYTLPEERALYQEASAINSTFFTTSIFHKIDQKIDKLGIEDHTQQMKILHMSMLASNANHYADVADLEGHHHHHH | soluble
MSLRIGVIGLGRIGTIHAENLKMIDDAILYAISDVREDRLREMKEKLGVEKAYKDPHELIEDPNVDAVLVCSSTNTHSELVIACAKAKKHVFCEKPLSLNLADVDRMIEETKKADVILFTGFNRRFDRNFKKLKEAVENGTIGKPHVLRITSRDPAPPPLDYIRVSGGIFLDMTIHDFDMARYIMGEEVEEVFADGSVLVDEEIGKAGDVDTAVVVLRFKSGALGVIDNSRRAVYGYDQRIEVFGSKGRIFADNVRETTVVLTDEQGDRGSRYLYFFLERYRDSYLEELKTFIKNVKSGEPPAVSGEDGKMALLLGYAAKKSLEEKRSVKLEEVIGEGHHHHHH | soluble
MSLRIPTKPSPVFDAATDPAGSGKDLGNLPDWDLSDLYAAPDAPEVTRDLDRLKTLCADFAERYEGKLADLDAQGMLTCVTAHEEIDRIAGRLMSYAGLRYYQVTTDGERAQFLQNCQEKLTDYTTPLVFFSLEINRIPDDKLDALFEANADLARYKPIFDRLRAMRPYQLSDELEKFLHDQSAVGSAAWNKLFDETMARLTFSPEGEDEDLSLEATLNLLSEQKRSRREAGARELARVFGENLPLFARVHNTLAKEKEIEDRWRKMPSAQTARHLSNHVEPEVVEALRNAVVDAYPKLSHRYYALKAKWLGLETMEVWDRNAPLPMEEERVIDWPKAREMVLSAYAGFDPEMAAIAEPFFDRGWIDAGVKPGKAPGAFAHPTVTDAHPYVLLNYLGKPRDVMTLAHELGHGVHQVLAAGQGELLADTPLTLAETASVFGEMLTFRKLLAEAPDAAQKKVLLAGKVEDMINTVVRQIAFYDFECKLHEARRTRGELTTSQINELWMSVQGESLGPAFTFMDGYETFWSYIPHFVHSPFYVYAYAFGDGLVNALYAVYEEGDPDFQKKYFEMLKAGGSKHHSELLKPFGLDASDPKFWDKGLSMISGFIDELEAMEDEGHHHHHH | soluble
MSLRITRIRLYKTDLPYVDGSYGWGAGNAITVARASVVVIDTDAGLQGCGEFTPCGENYMIAHSEGVDAFARLAAPQLLGQDPRQVARMERLMDHLVQGHGYAKAPFDAAFWDILGQATGQPVWMLLGGKLCDGAPMYRVAPQRSEAETRAELARHRAAGYRQFQIKVGADWQSDIDRIRACLPLLEPGEKAMADANQGWRVDNAIRLARATRDLDYILEQPCRSYEECQQVRRVADQPMKLDECVTGLHMAQRIVADRGAEICCLKISNLGGLSKARRTRDFLIDNRMPVVAEDSWGGEIASAAVAHFAASTPEEFLINSTDLMNYNTRSTGLGGPTVHQGRLYASDTPGLGVTPDFNSLGAPVADWALPEGHHHHHH | soluble
MSLRKEPYLLVFGASVVDVFGFSKASYRPYNSTPGHVKISFGGVCRNIAENMARVGVNTNFMSILGNDEHGKSIVEHSKKIGYHMDDSMVIEGGSTPTYLAILDENGEMVSAIADMKSIGAMNTDFIDSKREIFENAEYTVLDSDNPEIMEYLLKNFKDKTNFILDPVSAEKASWVKHLIKDFHTIKPNRHEAEILAGFPITDTDDLIKASNYFLGLGIKKVFISLDADGIFYNDGVSCGKIKATEVDVKNVTGAGDSFVAGLGYGYMNKMPIEDIVKFAMTMSNITISHEETIHPDMALDTVLAKLEKTTWEEEKYDLNEGHHHHHH | soluble
MSLRKTVAFGFVGTVLDYAGRGSQRWSKWRPSLCICQQESLVIDRLELLHDARSRSLFETLKRDIASVSPETEVVSVEIELHNPWDFEEVYACLHDFARGYEFQPEKEDYLIHITTGTHVAQICWFLLAEARYLPARLIQSSPPRKKEQPRGAGEVTIIDLDLSLYNAIASRFAEERQQTLDEGHHHHHH | soluble
MSLRMKVFEIVKSSTENEIVRIHVELPRLKYLKDSNFEEKFNSEVEEKIKKFVNEVKGIAQEDHDKDVQHTPYEAYVSVDVRYEGKDFLSFVVYYYQFTGGAHGITFFETYNIDLKNSKVLKLYDIIKEEAEDTIKSNILKQIEQNNTDFFPDAPMNILKDDIFSREFTISKDGLIIMYPHYDLAPYASGMPEFVIPWNVIEKFLKYDILSLLKEGHHHHHH | soluble
MSLRPDMSRLTMIRFLTEIDYPPFNFTGADGNPAGFNVDLARALCDEIKITCTVQMRKFETLLDALASNRGDAIIASLAVTPQTRTKLDFTDPYYRTPARFVARKDAVMPEMRPEFLEGRKVGAVAGSAHEAYLKAMFTDAELHSYPNAEALRAALKRGEVDFIFGDAISLAFWINGTDSENCCAFSGAPFLESRYFGEGVGIAVRKGNDTLRQALNWALFRVWEKGQYTDLWLRYFSVSEGHHHHHH | soluble
MSLRRFKFQYKETIVTILTENEEFYKTAVKAILEARSEIEDYILHNPDFFTSYEPIECSGGEIINRMCNAAKIAGVGPMAAVAGTIAAYAVEKMIDAGAKLAVVDNGGDIVIHSDRELLVGIYPSKLAFKVPPVDYLAICTSSGKIGHSVSFGKADAATVVARDASVADALATALGNLIGDFGKKELEKTVSEFYGKYSDFVEGILVVKDELVALAGNLPSLAFAESKEDLITKGEGHHHHHH | soluble
MSLRTLPAIVMMTLYALAGLAHAQQPPWRVGFCQDTLDIPWRAAQAMTFSQTLQTDKRFQVILSDAKGNTTQQAIDLEHMVERGVHVLVTSPRDGAVLTPVISNIYRQGVPVVLLSRRTLDENFTTFIAPDDAEIGRQAARYLSKRLNEKGKILVIQGLGSASTTQQRTVGFIQELSLHPHMQIVAQPFANYKKEMAILIMESILAQKLPFDAIYVHSDAMALGAILALKRAGIDPTKLPIVSIDYTRAGRESLRKGEIDAIFTYPNGVKQGITAVKRILAGQPVNKFQTVPSTLVTQENINTLEPVEGHHHHHH | soluble
MSLRVRTPSDDPVASAQIELIKQRINNIELFQNNRQAADSALRLEEGILSNAVNSLHRLREIQIQAGNPSLSEEDRKTLAVEAQALLNQLLDYANTKDSNGSYMFSGSKSLTQPVSLNLSGQYVYNGDSTQRFQAVTTSLLVAVNDTGDNVFMRIPSGNGRFAIRETLTPNTGTASVSSGSVTNEAAFVPDNYTMTFALNSQGNLVVMVSGTLSGNVIPPSGLPDDAPLYQEGSAIGFNGMEMVVSGLPKAGDSFSISPAKNESIFSTVQRMINNLNKPYTSSVEKAATQTENNQLLAQIDSALGHILSVQSDLGARLNQLETAEKANNDYLDISAATLKKLREIDPVAVATELNLQLVNLQAAQLSFTRIQGLSLFNFLEGHHHHHH | soluble
MSLRWEGALSAGQRKASNAIVVNLKAKTDMLLWAVAGSGKTEMMFEGMDWALRQGFRICVASPRVDVCLELLPRLKEAFPSIDIVCLYGDSKDNYQGEQFVIATTHQLIRFYEAFQVIFIDEVDAFPYAKDPFLEYAVMKARTKEGSTIIITATPEKKWQEECVRGKRNFVKIPGRYHRKKLPVPRTCWIGPWKKNLAKGKITPKLIQWMNDVKKKDQPALIFFPEIDAMNKFANALENKGYASEGHHHHHH | not soluble
MSLRYTNSHLEDWIENLYKKIDITEPEQINFERIAEALDIRLSFKPVTSFALKHSGIYNICLDSRKSRTEQWYDFAHEFCHIYRHEGDKKTMPATWTDYLDWQSNYFTYHFCIPTCMLRNINLPYIQSHAIENVAWLFKVSPSFAKKRLSIYYRKLTQHLFSQTVTGNLCPPFLEGHHHHHH | not soluble
MSLSDDVALPLEFTDAAANKVKSLIADEDNPNLKLRVYITGGGCSGFQYGFTFDDQVNEGDMTIEKQGVGLVVDPMSLQYLVGGSVDYTEGLEGSRFIVTNPNAKSTCGCGSSFSIEGGSHHHHHH | soluble
MSLSDPNTSGSGVVGESSGVRVAIEGCGHGCLHSIYASVERAAALKGWDGVDLLIIGGDFQAVRNSNDMACMSVPNKYKEIGDFHEYYSGQRTAPYLTIFVGGNHEASNHLFELYYGGWVAPNIYYMGAANVLRFGPLRIAGLSGIWKGRDYRKPHFERLPYNDDDIKSIYHVRELDVRKLLQVRTQIDVGLSHDWPRQIEYCGDWQQLFRAKPLFRRDSQNGTLGSTAAEYVLNRLRPAYWFSAHLHVKFAASVQHGPQEVVPNRQYGLDGASLTSMLSETEEASRQTGYSQAEAEPNAHAVSETGTTEEGHHHHHH | soluble
MSLSDQPVLFSRAAASCRLTLNREDKCHAINEEMIESLDHYLNEIENDTALRLVELTATGDKFFCAGGDIKSWSAYSPLDMGRKWIKRGNDVFNRLRNLPQLTVANLNGHTIGGGIELALCCDIRIARPHAKFSNPEVMLGMVPGWMGIERVLNQVGPVVGRQMLMLGKRLTAQEAQAANLIDEVVEKEQVESWMANQLAQLEKCGPVALAHIKQLILALENKHADYSHQLLAGLMSATQDCQQATHAFAEKAGVSFHNQEGHHHHHH | soluble
MSLSEFEKYYPKISNLSTKLLDNPELGFKEYQTSKLIEDEIKSISPSIKVEHYLGTGLKVIFDNHKPKTIGIIAEMDDLYQPKHFKANPETGAAHACGHYTQVGIALAMINEIVKAERLKEFGTNLAFIFTPAEEFVDLDWRQEQKAKHKLDYFGGKQEAIKQGLFDHINYCVSVHAIGEEFKQRTVEINCDLAGFNFKYFDFYGEASHAAFAPESGVNAQSIATLFTTALALQRQQIKNPNRIRFNPVVIGENTESINVIPDHVKMGSDLSFFDIKYVQSLMKKFDQAAQGCASALGGKAKITTQVGYLPLHSNREMNALVKDTFLQEDRIPGLIENRGYTMAAGDIGDVGFIMPTIQIGYGGWTGTIHGSDFKLIDPEFVLKIFPEFVFNSTLNISNHLEKIDEYHHTKREYLKALKKMEGEGHHHHHH | not soluble
MSLSELLDLSFLSEEEKDLILSVLQRDEEVRKADEKRIRRLKNELLEIKRKGAKRGSQHYSDRTCARCQESLGRLSPKTNTCRGCNHLVCRDCRIQESNGTWRCKVCAKEIEMKKATGDWFYDQKVNRFAYRTGSEIIRMSLRHKPAVSKREGHHHHHH | not soluble
